Test [1] has as its system Notch1. Description: Notch activation in co-culture format with HEK293T (U2OS luciferase reporter). The test is classed as cell-based, human. To be noted: HEK293T expressing full-length ligand, 1:1 ratio. As for the experimental part:
(§1) On day one, U2OS reporter cells (signal receiver cells) were detached with trypsin-EDTA, washed with DPBS, and 5×10^5 cells were added to 6-well plates (Falcon) for transfection with luciferase reporter vectors. On day two, U2OS cells were transfected as described above. On day three, signal receiver cells were detached with trypsin-EDTA, and 100 μL of DMEM media containing 20,000 cells were added to tissue culture 96-well plates (Coastar). In parallel, HEK293T-expressing WT DLL4 or Delta^MAX were detached with trypsin-EDTA, counted manually, and dilutions prepared such that 100 μL of DMEM containing 20,000 signal sender cells were added over signal receiver cells (cell ratio 1:1). Doxycycline (Sigma) at 2 μg/mL was used to induce Notch-Gal4 expression. On day four, luciferase firefly and Renilla signals were determined with Dual-Glo luciferase assay system (Promega) using a GloMax luminometer (Promega). A luminescence ratio firefly:Renilla was determined for every well and normalized to the signal of a well containing U2OS reporter cells and HEK293T non-expressing DLL4 ligands. Notch activation is represented as the mean fold-change over the control±s.d. of three independent biological replicates.

Test [2] relates to Notch2. The test is described as above. The test is classed as cell-based, human. To be noted: HEK293T expressing full-length ligand, 1:1 ratio; P=0.037. As for the experimental part: as §1
The test system of test [3] is Notch3. The test is described as above. The test is classed as cell-based, human. Conditions: HEK293T expressing full-length ligand, 1:1 ratio. As for the experimental part:
as §1

Test [4] relates to CD8+ T cells. Description: Co-culture assay for IFNγ in T cells (K32 aAPCs expressing ligand). The test is classed as cell-based, human. Conditions: 96 h, P=0.047. As for the experimental part:
Functional assays for human CD8^+ T cells were performed in co-culture with K562 cells expressing human CD32 (K32 cells) generated as described before7. Briefly, cells were γ-irradiated (100Gy) and washed twice with PBS before being loaded with OKT3 (0.0125-0.5 μg/mL, BioXcell) antibody at RT for 10 min. Human CD8^+ T cells were negatively isolated from PBMC and labeled with 5 μM of Cell Trace Violet (Invitrogen) according to manufacturer's specifications. Next, CD8^+ T cells were co-cultured with K32 cells at ratio 1:10 (T cell:K32). The frequency of proliferating T cells was determined after 96 hours by flow cytometry using a CytoFLEX II (Beckman Coulter). Zombie Green (Biolegend) was used for life/dead cell staining to discard dead cells from the analysis. A set of samples were additionally incubated with Golgi stop (BD) at 0.5 μL/well for 5 hours and washed with PBS for detection of intracellular IFNγ using anti-hIFNγ APC antibody (Biolegend). The frequency of IFNγ positive cells was analyzed by flow cytometry (CytoFLEX II, Beckman Coulter). Dead cells were excluded from the analysis by staining with Zombie green (Biolegend). The data represent the mean percentage of proliferating T cells or IFNγ^+ T cells±s.e.m. of four independent biological replicates.

In test [5] the test system is CD8+ T cells. Description: Quantitative real-time PCR of activation markers in CD8+ T cells. The class given is cell-based, human. To be noted: K32 loaded with 0.0125 μg/mL OKT3, over four days. The protocol: Human CD8^+ T cells were co-cultured with K32-DLL4 cells for 96 hours and positively enriched by MACS column (Invitrogen Kit). Total RNA was isolated from CD8^+ T cells using TRIzol (Life Technologies). Reverse transcription reaction was performed using Verso cDNA Synthesis Kit (Thermo Scientific). Quantitative PCR reactions were prepared by using Bio-Rad SYBR green master mix and performed on an Applied Biosystems thermocycler (7900 HT). Relative expression was calculated using the ΔΔCt method and normalized to B2M levels. The data represent the mean quantity of mRNA (in-fold) for different T cell markers±s.e.m. of four independent biological replicates. Pair primers used were: […]

Test [6] has as its target T1, Notch2 (Homo sapiens, UniProt Q04721).
T1 construct: endogenous in cells; host or cells: primary human CD8+ T cells from PBMC
Description: Immunoblot of cleaved Notch2 in CD8+ T cells. The class given is cell-based. To be noted: CD8+ T cells after 96 hours with K32 cells. The text has this: For detection of Notch activation in CD8^+ T cells, following co-culture with K32 cell lines, CD8^+ T cells were positively enriched by Magnisort Human CD8^+ T cell positive selection Kit (Invitrogen). Nuclear fraction was isolated using NE-PER Nuclear and Cytoplasmic extraction kit (ThermoFisher). Equal protein amounts of nuclear cell lysates were run on 4-20% gradient Tris-glycine gels (Novex-Invitrogen), transferred to PVDF membranes using an iBlot Gel Transfer Device (ThermoFisher), and immunoblotted with antibodies anti-cleaved Notch1 (Val1744 rabbit mAb, Cell Signaling Technology, 1:1,000), anti-Notch2 (D76A6 rabbit mAb, Cell Signaling Technology, 1:1,000), and anti-β Actin (mouse mAb, Sigma, 1:20,000). Secondary antibodies anti-IgG (anti-rabbit or anti-mouse, GE Healthcare, 1:5,000) conjugated to horseradish peroxidase (HRP) were used for detection of proteins using ECL Western Blot Substrate Reagent (Thermo Fisher Scientific). Images were acquired using a Chemidoc Imaging System and analyzed with Image-Lab software (Bio-Rad).

Data on 1 molecule can be found in patent US20260055369A1, “METHOD FOR GENERATING CELLS OF THE T CELL LINEAGE WITH ENGINEERING BROADLY REACTIVE HUMAN NOTCH LIGAND” (H. Lee Moffitt Cancer Center and Research Institute, Inc., priority 2022, published 2026).

Sequence of Notch2 (Q04721 221-530 limits assumed): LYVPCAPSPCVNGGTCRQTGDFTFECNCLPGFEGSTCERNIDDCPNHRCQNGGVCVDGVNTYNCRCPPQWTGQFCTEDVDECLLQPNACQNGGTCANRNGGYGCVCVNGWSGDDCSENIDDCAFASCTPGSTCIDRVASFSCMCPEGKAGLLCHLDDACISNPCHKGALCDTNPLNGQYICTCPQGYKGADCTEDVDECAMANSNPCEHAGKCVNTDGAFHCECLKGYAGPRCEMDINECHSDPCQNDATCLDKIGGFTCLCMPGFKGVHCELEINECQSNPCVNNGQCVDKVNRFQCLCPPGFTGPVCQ
Sequence of Notch1 (P46531 19-1664 limits assumed): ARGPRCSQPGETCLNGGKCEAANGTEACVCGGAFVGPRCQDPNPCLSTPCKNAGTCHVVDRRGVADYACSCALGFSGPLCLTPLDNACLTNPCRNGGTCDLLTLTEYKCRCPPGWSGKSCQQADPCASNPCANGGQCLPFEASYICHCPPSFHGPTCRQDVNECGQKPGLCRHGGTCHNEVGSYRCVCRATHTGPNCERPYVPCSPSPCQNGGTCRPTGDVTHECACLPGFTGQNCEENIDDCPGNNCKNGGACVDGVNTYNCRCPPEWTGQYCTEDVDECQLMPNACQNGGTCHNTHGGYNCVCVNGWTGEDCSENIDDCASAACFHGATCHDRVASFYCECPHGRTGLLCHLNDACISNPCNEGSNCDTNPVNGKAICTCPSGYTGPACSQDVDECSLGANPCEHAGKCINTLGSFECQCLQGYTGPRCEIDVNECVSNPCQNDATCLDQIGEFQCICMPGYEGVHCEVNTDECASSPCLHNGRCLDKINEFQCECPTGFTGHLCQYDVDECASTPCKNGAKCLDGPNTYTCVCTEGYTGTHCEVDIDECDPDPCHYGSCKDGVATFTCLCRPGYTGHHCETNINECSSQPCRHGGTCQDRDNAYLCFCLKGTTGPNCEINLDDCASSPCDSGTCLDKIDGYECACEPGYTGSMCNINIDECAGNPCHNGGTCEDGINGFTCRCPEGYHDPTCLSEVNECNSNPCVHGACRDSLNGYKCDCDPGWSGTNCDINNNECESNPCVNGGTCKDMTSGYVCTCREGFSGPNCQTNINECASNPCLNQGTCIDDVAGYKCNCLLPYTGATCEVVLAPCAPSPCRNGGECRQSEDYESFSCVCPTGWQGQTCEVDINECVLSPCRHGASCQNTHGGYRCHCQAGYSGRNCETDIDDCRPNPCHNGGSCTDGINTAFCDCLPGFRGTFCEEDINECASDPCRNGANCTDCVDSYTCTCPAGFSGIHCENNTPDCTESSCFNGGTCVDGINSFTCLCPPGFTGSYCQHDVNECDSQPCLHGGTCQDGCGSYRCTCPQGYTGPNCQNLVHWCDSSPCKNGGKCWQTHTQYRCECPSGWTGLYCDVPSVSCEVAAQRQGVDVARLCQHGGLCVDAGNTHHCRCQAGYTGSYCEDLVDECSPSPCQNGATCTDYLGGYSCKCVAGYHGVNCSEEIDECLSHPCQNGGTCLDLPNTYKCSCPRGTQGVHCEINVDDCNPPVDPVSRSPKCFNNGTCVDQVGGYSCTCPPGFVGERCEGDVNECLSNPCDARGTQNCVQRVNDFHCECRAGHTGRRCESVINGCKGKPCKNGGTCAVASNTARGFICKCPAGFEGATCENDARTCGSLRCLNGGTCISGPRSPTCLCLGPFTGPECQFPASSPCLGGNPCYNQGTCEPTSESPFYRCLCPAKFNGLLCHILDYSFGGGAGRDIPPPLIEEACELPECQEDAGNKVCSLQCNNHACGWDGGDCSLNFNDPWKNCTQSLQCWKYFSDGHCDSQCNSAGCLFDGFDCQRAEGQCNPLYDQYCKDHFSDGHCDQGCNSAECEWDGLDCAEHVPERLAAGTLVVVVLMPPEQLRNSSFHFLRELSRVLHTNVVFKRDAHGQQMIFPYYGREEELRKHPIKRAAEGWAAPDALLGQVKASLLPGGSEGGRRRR
Sequence of Notch1 (P46531 1665-1756 limits assumed): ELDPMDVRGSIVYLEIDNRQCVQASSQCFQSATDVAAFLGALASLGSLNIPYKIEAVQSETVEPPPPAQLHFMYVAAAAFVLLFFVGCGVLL
T1 sequence (Q04721 26-2471): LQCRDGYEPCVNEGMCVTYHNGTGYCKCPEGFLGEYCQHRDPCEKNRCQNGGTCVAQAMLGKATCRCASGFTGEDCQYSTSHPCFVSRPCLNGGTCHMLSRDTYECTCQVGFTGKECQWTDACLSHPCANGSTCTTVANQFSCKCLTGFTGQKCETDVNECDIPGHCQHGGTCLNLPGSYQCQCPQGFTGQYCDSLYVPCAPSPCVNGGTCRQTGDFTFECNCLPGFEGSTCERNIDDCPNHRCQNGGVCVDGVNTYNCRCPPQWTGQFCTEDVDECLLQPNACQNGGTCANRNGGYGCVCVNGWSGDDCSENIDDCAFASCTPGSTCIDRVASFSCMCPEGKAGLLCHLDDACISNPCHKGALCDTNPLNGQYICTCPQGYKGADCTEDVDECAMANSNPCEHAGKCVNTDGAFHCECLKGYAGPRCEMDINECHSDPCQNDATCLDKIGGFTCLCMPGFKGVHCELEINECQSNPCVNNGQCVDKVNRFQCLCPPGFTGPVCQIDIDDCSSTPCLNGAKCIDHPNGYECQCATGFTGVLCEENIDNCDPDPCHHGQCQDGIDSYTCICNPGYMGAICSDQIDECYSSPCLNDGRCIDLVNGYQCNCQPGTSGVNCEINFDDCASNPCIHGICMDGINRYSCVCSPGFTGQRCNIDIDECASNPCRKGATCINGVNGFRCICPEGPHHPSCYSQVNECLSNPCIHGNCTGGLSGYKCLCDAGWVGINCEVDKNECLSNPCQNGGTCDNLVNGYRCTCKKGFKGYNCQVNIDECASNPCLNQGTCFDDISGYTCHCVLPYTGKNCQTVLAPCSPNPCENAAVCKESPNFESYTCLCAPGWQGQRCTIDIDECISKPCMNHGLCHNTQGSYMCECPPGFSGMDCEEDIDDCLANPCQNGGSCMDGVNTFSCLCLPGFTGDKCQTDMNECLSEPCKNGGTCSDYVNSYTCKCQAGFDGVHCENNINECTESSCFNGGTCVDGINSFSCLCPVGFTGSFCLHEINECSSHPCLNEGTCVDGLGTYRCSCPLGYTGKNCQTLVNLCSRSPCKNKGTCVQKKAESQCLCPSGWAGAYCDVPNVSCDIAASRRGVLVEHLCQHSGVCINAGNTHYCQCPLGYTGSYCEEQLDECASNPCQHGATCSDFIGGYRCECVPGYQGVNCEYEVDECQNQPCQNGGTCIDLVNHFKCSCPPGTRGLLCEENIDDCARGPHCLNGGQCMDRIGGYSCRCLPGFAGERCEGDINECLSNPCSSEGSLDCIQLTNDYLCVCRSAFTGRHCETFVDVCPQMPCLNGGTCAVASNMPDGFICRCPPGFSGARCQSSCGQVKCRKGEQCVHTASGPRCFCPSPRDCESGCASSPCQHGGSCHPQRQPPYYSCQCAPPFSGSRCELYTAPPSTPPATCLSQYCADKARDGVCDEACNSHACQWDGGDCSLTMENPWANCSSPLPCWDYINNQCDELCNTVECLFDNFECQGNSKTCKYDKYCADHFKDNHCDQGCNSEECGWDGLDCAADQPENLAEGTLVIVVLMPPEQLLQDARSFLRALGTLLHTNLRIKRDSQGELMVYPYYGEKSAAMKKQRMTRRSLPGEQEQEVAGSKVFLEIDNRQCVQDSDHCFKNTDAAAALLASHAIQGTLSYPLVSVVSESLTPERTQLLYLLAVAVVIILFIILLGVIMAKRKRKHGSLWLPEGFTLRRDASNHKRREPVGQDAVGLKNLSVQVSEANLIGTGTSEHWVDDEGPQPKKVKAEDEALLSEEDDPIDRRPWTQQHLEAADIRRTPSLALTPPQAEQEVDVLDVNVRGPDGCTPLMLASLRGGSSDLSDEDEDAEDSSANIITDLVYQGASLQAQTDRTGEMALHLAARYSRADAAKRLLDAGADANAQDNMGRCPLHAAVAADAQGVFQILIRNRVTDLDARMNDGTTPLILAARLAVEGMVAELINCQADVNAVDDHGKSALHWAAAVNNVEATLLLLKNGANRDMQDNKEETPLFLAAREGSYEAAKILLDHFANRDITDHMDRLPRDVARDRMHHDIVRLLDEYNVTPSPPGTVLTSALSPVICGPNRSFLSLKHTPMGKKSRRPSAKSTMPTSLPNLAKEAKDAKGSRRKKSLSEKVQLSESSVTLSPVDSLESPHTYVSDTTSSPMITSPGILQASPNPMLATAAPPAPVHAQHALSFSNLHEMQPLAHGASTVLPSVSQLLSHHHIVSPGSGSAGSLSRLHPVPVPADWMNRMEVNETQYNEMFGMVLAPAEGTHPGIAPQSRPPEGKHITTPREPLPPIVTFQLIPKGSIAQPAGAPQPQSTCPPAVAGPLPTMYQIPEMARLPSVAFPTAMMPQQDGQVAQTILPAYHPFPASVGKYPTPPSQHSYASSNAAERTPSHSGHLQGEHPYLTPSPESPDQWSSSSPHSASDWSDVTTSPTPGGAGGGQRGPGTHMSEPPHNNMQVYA
Sequence of Notch3 (Q9UM47 197-505 limits assumed): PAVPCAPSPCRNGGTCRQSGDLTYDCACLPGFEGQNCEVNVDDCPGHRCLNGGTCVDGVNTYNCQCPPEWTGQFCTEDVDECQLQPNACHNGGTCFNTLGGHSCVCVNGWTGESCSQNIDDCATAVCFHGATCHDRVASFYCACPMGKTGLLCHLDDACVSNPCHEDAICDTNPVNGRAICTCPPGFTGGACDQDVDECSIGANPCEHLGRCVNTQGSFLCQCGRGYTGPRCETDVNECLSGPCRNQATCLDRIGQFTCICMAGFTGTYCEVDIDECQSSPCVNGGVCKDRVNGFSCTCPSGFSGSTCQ

B1: Delta^MAX: engineered human DLL4 consensus variant with 10 mutations combining DLL4.v1 and DLL4.v2 mutations; sequence matches SEQ ID NO: 4/10 (protein)
chain: SSVFQLQLQEFINERGVLASGRPCEPGCRTFFRVCLKHFQAVVSPGPCTFGTVSTPVLGTNSFAVRDDSSGGGRNPLQLPLNFTWPGTFSLIIEAWHAPGDDLRPEALPPDALISKFAIQGSLAVGQNWLLDEQTSTLTRLRYSYRVICSDNYYGDNCSRLCKKRNDYFGHYVCQPDGNPSCLPGWTGEYCQQPICLSGCHEQNGYCSKPAECLCRPGWQGRLCNECIPHPGCRHGTCSTPWQCLCDEGWGGLYCDQDLNYCTHHSPCKNGATCRNSGPRSYTCTCRPGYTGVDCELELSECDSNPCRNGGSCKDQEDGYHCLCPPGYYGLHCEHSTLSCADSPCFNGGSCRERNQGANYACECPPNFTGSNCE
For B1, in test [1], the “Emax of signaling vs WT DLL4” value was approximately 2 fold. The “Notch2 activation compared to unstimulated cells” value in test [2] is given as “significant level of Notch2 activation”. For the same molecule, the “Emax of signaling vs WT DLL4” value in test [3] is given as approximately 2 fold. The “increase of IFNγ secretion from CD8+ T cells compared with WT DLL4” value in test [4] is reported as 10-15%. Further, in test [5], the “Granzyme B mRNA level vs WT DLL4 or mock” value is “increased levels”, the “Hes-4 (Notch target) expression vs WT DLL4 or mock” value was “elevated expression” and the “IFNγ mRNA level vs WT DLL4 or mock” value is “increased levels”. The “Notch2 activation (cleaved ICD) relative to WT DLL4” value in test [6] is recorded as “increased”.
